In patent US20200055934A1:
Where two headings read alike, the source gives them in different places.

Key:
Experiment in all cases: cell-based or functional assay
[1] = target: Receptor for Advanced Glycation Endproducts (RAGE), human, full length (human) (UniProt Q15109)
[2] = target: Receptor for Advanced Glycation Endproducts (RAGE), human, full length (human) (UniProt Q15109); remark: listed apart in the source
[3] = target: Receptor for Advanced Glycation Endproducts (RAGE), human, full length (human) (UniProt Q15109); remark: listed apart in the source

UniProt Q15109, sequence (Q15109 23-404 limits assumed): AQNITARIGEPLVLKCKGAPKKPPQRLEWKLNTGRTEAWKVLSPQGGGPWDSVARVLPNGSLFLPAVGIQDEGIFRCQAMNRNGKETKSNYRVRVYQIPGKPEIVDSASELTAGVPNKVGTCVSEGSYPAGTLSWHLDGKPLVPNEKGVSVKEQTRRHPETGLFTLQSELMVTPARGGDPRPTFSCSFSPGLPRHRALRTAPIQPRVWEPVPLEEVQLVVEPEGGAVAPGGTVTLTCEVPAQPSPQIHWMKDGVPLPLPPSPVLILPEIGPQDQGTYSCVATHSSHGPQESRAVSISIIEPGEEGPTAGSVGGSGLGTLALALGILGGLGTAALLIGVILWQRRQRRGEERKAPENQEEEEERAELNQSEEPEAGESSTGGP

## SNIPER-MMAE (MAB11451 conjugated with vcMMAE) (antibody)
[1]
  IC50, cell viability, HEC1A endometrial cancer cells, 24 h: 10.3 µg/mL
  IC50, cell viability, HEC1A endometrial cancer cells, 48 h: 4.69 µg/mL
  IC50, cell viability, HEC1A endometrial cancer cells, 96 h: 1.02 µg/mL
  IC50, cell viability, HEC1B endometrial cancer cells, 24 h: 29 µg/mL
  IC50, cell viability, HEC1B endometrial cancer cells, 48 h: 8.65 µg/mL
  IC50, cell viability, HEC1B endometrial cancer cells, 96 h: 5.67 µg/mL
  IC50, cell viability, HEC50 endometrial cancer cells, 48 h: 7.64 µg/mL
  IC50, cell viability, HEC50 endometrial cancer cells, 96 h: 2.18 µg/mL
  IC50, cell viability, Ishikawa endometrial cancer cells, 24 h: 31 µg/mL
  IC50, cell viability, Ishikawa endometrial cancer cells, 48 h: 9.54 µg/mL
  IC50, cell viability, Ishikawa endometrial cancer cells, 96 h: 3.86 µg/mL
  IC50, cell viability, TOV112D ovarian cancer cells, 24 h: 22.6 µg/mL
  IC50, cell viability, TOV112D ovarian cancer cells, 48 h: 16.2 µg/mL
  IC50, cell viability, TOV112D ovarian cancer cells, 96 h: 0.54 µg/mL
  IC50, cell viability, healthy endometrial cells, 48 h: 10.7 µg/mL
  IC50, cell viability, healthy endometrial cells, 96 h: 15.2 µg/mL
  IC50, cell viability, healthy ovarian cells, 96 h: 41 µg/mL
[2]
  IC50, cell viability, TOV112D ovarian cancer cells, 24 h: 16.7 µg/mL

## SNIPER-MMAF (MAB11451 conjugated with mcMMAF) (antibody)
[1]
  IC50, cell viability, HEC1A endometrial cancer cells, 24 h: 24.1 µg/mL
  IC50, cell viability, HEC1A endometrial cancer cells, 48 h: 0.81 µg/mL
  IC50, cell viability, HEC1A endometrial cancer cells, 96 h: 0.74 µg/mL
  IC50, cell viability, HEC1B endometrial cancer cells, 48 h: 1.96 µg/mL
  IC50, cell viability, HEC1B endometrial cancer cells, 96 h: 1.27 µg/mL
  IC50, cell viability, HEC50 endometrial cancer cells, 24 h: 17.8 µg/mL
  IC50, cell viability, HEC50 endometrial cancer cells, 48 h: 0.86 µg/mL
  IC50, cell viability, HEC50 endometrial cancer cells, 96 h: 0.94 µg/mL
  IC50, cell viability, Ishikawa endometrial cancer cells, 24 h: 16.7 µg/mL
  IC50, cell viability, Ishikawa endometrial cancer cells, 48 h: 6.48 µg/mL
  IC50, cell viability, Ishikawa endometrial cancer cells, 96 h: 2.42 µg/mL
  IC50, cell viability, TOV112D ovarian cancer cells, 48 h: 2.51 µg/mL
  IC50, cell viability, TOV112D ovarian cancer cells, 96 h: 0.59 µg/mL
  IC50, cell viability, healthy endometrial cells, 48 h: 7.25 µg/mL
  IC50, cell viability, healthy endometrial cells, 96 h: 4.17 µg/mL
  IC50, cell viability, healthy ovarian cells, 48 h: 14.4 µg/mL
  IC50, cell viability, healthy ovarian cells, 96 h: 4.87 µg/mL
[3]
  IC50, cell viability, Ishikawa endometrial cancer cells, 24 h: 16.7 µg/mL
[2]
  IC50, cell viability, TOV112D ovarian cancer cells, 24 h: 2.5 µg/mL
